Consider 116 sequences from the supplement of paper PMC10724198.

± gives the standard deviation of the averaged measurements.
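Also: PSI is a weighted mean of sequencing reads over stability bins, variants kept only with over 10 reads, mCherry proximal and sfGFP distal, peptide attached via GGGS linker.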

The subject of the data set is Saccharomyces cerevisiae. The experiment in a line: protein stability index of tFT-peptide fusion (C-terminal peptide) (PSI (0-1 scale)); higher = more stable (slower turnover). The following applies: genetic background: wild type; temperature: 30 C.
Turning to KREQGPRPRACR, the protein stability index turned out to be 0.617 ± 0.036.

In turn, KRGKRTEKDKET had a protein stability index of 0.652 ± 0.071.

In turn, KRKEDSILVISC showed a protein stability index of 0.662 ± 0.029.

For the sequence KRKERKGEKKRR, the protein stability index was 0.685 ± 0.033.

With KRKKKENNKIKI, the protein stability index came out at 0.756 ± 0.1.

Sequence KRKKKRKQKGKQ displayed a protein stability index of 0.722 ± 0.036.

In turn, KRKKNKKRKQNE gave a protein stability index of 0.656 ± 0.026.

In the case of KRKKTRNKNGKG, the protein stability index is 0.627 ± 0.073.

As for KRKPEHKSAAEE, the protein stability index turned out to be 0.669 ± 0.038.

Take KRKRAVQYLMQP: the protein stability index is 0.615 ± 0.042.

The sequence KRLKKKKQSGGK yielded a protein stability index of 0.71 ± 0.03.

KRRSQKKKRIMD returned a protein stability index of 0.6968 ± 0.0043.

KRTKKKTKDERK came in with a protein stability index of 0.644 ± 0.044.

On to KRYSVPLTTVVD, for which the protein stability index is 0.7165 ± 0.0035.

On to KSSEIKEKKTKK, for which the protein stability index was found to be 0.7151 ± 0.0011.

Take KSSNIINQKRIT: the protein stability index is 0.66 ± 0.056.

The sequence KSSTLRKIKRGK displayed a protein stability index of 0.716 ± 0.03.

The sequence KTCENKKKALRR displayed a protein stability index of 0.6923 ± 0.0016.

In turn, KTGRPSRRGSTT yielded a protein stability index of 0.704 ± 0.036.

As for KTGVRAVSLTGS, the protein stability index was found to be 0.696 ± 0.038.

For KTHKKKKKNKNF, the protein stability index was determined as 0.525 ± 0.012.

KTINEKKKRIEQ gave a protein stability index of 0.713 ± 0.055.

On to KTIQDNNYDGIW, for which the protein stability index was 0.766 ± 0.25.

Regarding KTKKNKKKKINK, the protein stability index is 0.692 ± 0.075.

KTKRKKKRRRRE displayed a protein stability index of 0.705 ± 0.067.

Turning to KTQKKPNNRKNI, the protein stability index turned out to be 0.682 ± 0.04.

KTRHVGSDNQGL yielded a protein stability index of 0.663 ± 0.043.

As to KVAECGYGTSWV, the protein stability index came to 0.724 ± 0.013.

In turn, KVCESRQVEYFR came in with a protein stability index of 0.634 ± 0.088.

The sequence KVCVLSPDSCGL came in with a protein stability index of 0.741 ± 0.033.

The sequence KVGLGVNSLFTG registered a protein stability index of 0.745 ± 0.18.

KVKGKSISKINH showed a protein stability index of 0.645 ± 0.055.

For the sequence KVLTTISRAINK, the protein stability index was 0.604 ± 0.012.

In the case of KVRDTFRDFGLM, the protein stability index stood at 0.673 ± 0.063.

Consider KYMPKDSLKNTI, for which the protein stability index is 0.622 ± 0.01.

Consider KYPRPNSYFVPI, for which the protein stability index was 0.717 ± 0.023.

LAARTKAQARHN showed a protein stability index of 0.652 ± 0.04.

In turn, LACVYEVIPGPS returned a protein stability index of 0.677 ± 0.047.

On to LACWAGVLGWGG, for which the protein stability index was determined as 0.732 ± 0.022.

As to LAESTSYNQRRP, the protein stability index came to 0.701 ± 0.06.

The sequence LAGGRCGCGTHD had a protein stability index of 0.684 ± 0.042.

In turn, LAGLAVASVRRE registered a protein stability index of 0.683 ± 0.013.

In turn, LAGRPSTTRAFR yielded a protein stability index of 0.59 ± 0.027.

In turn, LALFPDPSSIIL had a protein stability index of 0.7765 ± 0.0075.

LALHWVESRFKH returned a protein stability index of 0.71 ± 0.06.

On to LALSVRFFSVLF, for which the protein stability index was 0.587 ± 0.036.

The sequence LALVGGACVGRV had a protein stability index of 0.65 ± 0.044.

With LANGACLLRLNF, the protein stability index came out at 0.54 ± 0.017.

With LAPLALPLPPPT, the protein stability index amounted to 0.832 ± 0.18.

LAPPPLGNSSRP showed a protein stability index of 0.704 ± 0.049.

LARGGASIGGES yielded a protein stability index of 0.701 ± 0.015.

On to LARPPPPSNHSP, for which the protein stability index was determined as 0.695 ± 0.0094.

The sequence LASCAFQFLASC had a protein stability index of 0.691 ± 0.098.

As for LASGSVSCFWSG, the protein stability index came out at 0.71 ± 0.021.

Sequence LASSGQSWLVVF came in with a protein stability index of 0.563 ± 0.011.

LASSSPPTRPPH registered a protein stability index of 0.702 ± 0.048.

For the sequence LASVSNFLASGK, the protein stability index stood at 0.72 ± 0.058.

LAVNGEIERVCD displayed a protein stability index of 0.636 ± 0.11.

Regarding LAWALGESSPIG, the protein stability index stood at 0.737 ± 0.044.

For LAYCGSTYVSRH, the protein stability index turned out to be 0.699 ± 0.022.

The sequence LCANDRGVAALA returned a protein stability index of 0.683 ± 0.046.

For the sequence LCCSFGLFTLFW, the protein stability index is 0.711 ± 0.042.

The sequence LCHCLSLLFSFL returned a protein stability index of 0.581 ± 0.015.

LCLFPLVTPPPA came in with a protein stability index of 0.607 ± 0.029.

LCLGFDGAFPLF registered a protein stability index of 0.725 ± 0.014.

Sequence LCPTGAPLYFSL had a protein stability index of 0.64 ± 0.093.

LCRSSIILTLLL gave a protein stability index of 0.586 ± 0.057.

As to LCSPGPLPPSYF, the protein stability index worked out at 0.705 ± 0.045.

As to LCVGVGAAIRLW, the protein stability index was found to be 0.598 ± 0.039.

On to LDCVPRTHCILS, for which the protein stability index is 0.664 ± 0.074.

Sequence LDEFFIKTSANM displayed a protein stability index of 0.652 ± 0.088.

In turn, LDGSQDGANRRT registered a protein stability index of 0.728 ± 0.095.

In turn, LDLCTVIRFVGI showed a protein stability index of 0.723 ± 0.029.

The sequence LDRDTSCYMLDF yielded a protein stability index of 0.718 ± 0.03.

LDSGQALLSIPI showed a protein stability index of 0.643 ± 0.12.

LEGEESISQMNE came in with a protein stability index of 0.664 ± 0.043.

On to LEQAGFWWPKGL, for which the protein stability index amounted to 0.764 ± 0.0087.

LEVLGVPQLIRS came in with a protein stability index of 0.534 ± 0.07.

For the sequence LEWHRPLCPPLF, the protein stability index worked out at 0.734 ± 0.075.

Turning to LFCGALSTRLAR, the protein stability index was determined as 0.751 ± 0.081.

With LFCVARARLGCW, the protein stability index came to 0.768 ± 0.026.

On to LFERSFSSHPVL, for which the protein stability index was determined as 0.769 ± 0.13.

In turn, LFFLPSVLPFHC displayed a protein stability index of 0.636 ± 0.025.

For LFFSLLCSSFGS, the protein stability index is 0.708 ± 0.022.

LFGFSPAPVSFG showed a protein stability index of 0.733 ± 0.073.

For LFHPPVCPVFLD, the protein stability index was 0.758 ± 0.037.

LFIGFFGIECFI showed a protein stability index of 0.5798 ± 0.0037.

As for LFILSLGEYSLP, the protein stability index turned out to be 0.673 ± 0.066.

On to LFKRTWRVEGFG, for which the protein stability index was determined as 0.705 ± 0.094.

LFLDSTSTLPAP displayed a protein stability index of 0.662 ± 0.028.

LFPFPSPLPPPL returned a protein stability index of 0.766 ± 0.0092.

The sequence LFPPFPPFSFSP registered a protein stability index of 0.798 ± 0.045.

Turning to LFPPRVSLPSHT, the protein stability index was 0.663 ± 0.13.

Regarding LFPSPFVASFPP, the protein stability index is 0.765 ± 0.055.

Consider LFSCLHCLFSCQ, for which the protein stability index worked out at 0.616 ± 0.091.

On to LFSDAWVLTDWW, for which the protein stability index amounted to 0.753 ± 0.044.

In turn, LFSDLCRVAWSL showed a protein stability index of 0.615 ± 0.021.

For LFSPTFPTIYYA, the protein stability index turned out to be 0.759 ± 0.059.

Regarding LFSSFFSAAFAS, the protein stability index is 0.677 ± 0.064.

In turn, LFTGPPPSPPPP yielded a protein stability index of 0.699 ± 0.034.

Sequence LFTLSGAPLALP came in with a protein stability index of 0.729 ± 0.015.

Consider LFVCVFRPWLGG, for which the protein stability index was 0.766 ± 0.09.

Regarding LFVGSSPPPSPP, the protein stability index was found to be 0.643 ± 0.046.

LGACAGSGFKGV: the protein stability index was determined as 0.713 ± 0.033.

LGCCVFGFVFPS yielded a protein stability index of 0.672 ± 0.047.

As for LGCDDWIDWSRG, the protein stability index was found to be 0.694 ± 0.054.

For the sequence LGFFGGGRWAGG, the protein stability index is 0.717 ± 0.025.

LGGGAGKRVCEG displayed a protein stability index of 0.685 ± 0.014.

Sequence LGGGGGGGGRLR returned a protein stability index of 0.618 ± 0.0091.

The sequence LGGGGGLTAAGV came in with a protein stability index of 0.743 ± 0.016.

In turn, LGGGVLDVRGQL showed a protein stability index of 0.711 ± 0.011.

Sequence LGGHLFPLGPRR displayed a protein stability index of 0.664 ± 0.007.

Regarding LGGVKATGLGQL, the protein stability index amounted to 0.686 ± 0.04.

Regarding LGGVLVGDWVGI, the protein stability index was found to be 0.7125 ± 0.0042.

With LGGVRWNPGCRG, the protein stability index stood at 0.661 ± 0.047.

LGLGIWDCFCVL registered a protein stability index of 0.685 ± 0.018.
